Assay [1] concerns the target biotinylated peptide composed of amino acids 1-16 of the Aβ peptide (UniProt P05067). Kind of assay: phage ELISA screen of colonies after biopanning, negative control.
Another assay addresses β-amyloid peptide 1-40 (UniProt P05067). Briefly: cell-based or functional assay.

Substance helper phage M13KO7 gave an absorbance at 492 nm (OD) in assay [1] of 0.003 to 0.005 OD.

As for “10D5 (monoclonal antibody against the N terminus of Aβ peptide)”, in the assay with β-amyloid peptide 1-40, the Percent Aggregation (ThT emission at 485 nm), plus 1 µM 10D5 was found to be 61.4% and the Percent Disaggregation (ThT), plus 1 µM 10D5 amounted to 38.6%.

The values above are taken from patent US20090186027A1.
